Consider three molecules from patent US8247168B2, “Regulation of gene expression by protein methylation” (University of Southern California, priority 1998, dated 2012).

Data set [1] deals with androgen receptor, estrogen receptor, and thyroid hormone receptor. Description: Reporter gene activation by hormone-activated nuclear receptors in transiently transfected CV-1 cells. The note with it: co-expression of GRIP1 with NR, CV-1 cells, hormone present (lane d). The data set is classed as cell-based. As to the method: (A) Transient transfection assays with CV-1 cells were performed as in FIG. 5 with 0.5 μg of GK1 reporter gene and 0.5 μg of each of the indicated vectors. (B) CV-1 cells were transiently transfected as in FIG. 5 with the following vectors, as indicated: 0.5 μg of nuclear receptor expression vector pSVAR0 (Brinkmann, A. O. et al. (1989) J. Steroid Biochem. Molec. Biol. 34:307) expressing AR, pHE0 (Green, S. et al. (1988) Nucleic Acids Res. 16:369) expressing ER, or pCMX.hTRβ1 (Feng, W. et al. (1998) Science 280:1747) expressing TR; 0.5 μg of a luciferase reporter gene with an appropriate promoter, MMTV promoter for AR, or MMTV promoter with the native glucocorticoid response elements replaced by a single estrogen response element for ER or palindromic thyroid hormone response element for TR (Umesono, K. and R. M. Evans (1989) Cell 57:1139); 0.5 μg of pSG5.HA-GRIP1; and 0.5 μg of pSG5.HA-CARM1 or pSG5.HA-CARM1 (VLD mutant). Transfection efficiency was monitored by using βgalactosidase activity expressed from 0.1 μg of co-transfected pCMV-βgal vector (Hong, H. et al. (1996) Proc. Natl. Acad. Sci. USA 93:4948-4952) as an internal control. After transfection, cells were grown in charcoal-treated serum; where indicated 20 nM hormone (H), i.e. dihydrotestosterone for AR, estradiol for ER, or triiodothyronine for TR, was included during the last 40 h of culture. […]
On the technique in general: Reporter assays use an easily measured gene product as a stand-in for the process of interest.

In the next data set the test system is hnRNPA1. Description: Methylation of hnRNP A1, SDS-PAGE and fluorography (FIG. 8C). The data set is classed as biochemical, human. The note with it: 0.083 mg/ml hnRNP-A1. As for the experimental part:
CARM1 and PRMT1 have different protein methyltransferase substrate specificities. CARM1 methylates histone H3, whereas PRMT1 methylates histone H4. […] (A,B) Calf thymus histones (Boehringer Mannheim) were incubated for 30 min at 30° C. in 32.5 μl reactions containing 20 mM Tris-Cl, 0.2 M NaCl, 4 mM EDTA, pH 8.0, 0.32 mg/ml individual histone (2a, 2b, 3, or 4) or 1.3 mg/ml mixed histone (M), 0.037 mg/ml GST-CARM1 or GST-PRMT1, and 7 μM S-adenosyl-L-[methyl-^3H]methionine (specific activity of 14.7 Ci/mmol). Reactions were stopped by addition of SDS-NuPAGE sample buffer (Novex), and 40% of each stopped reaction was then subjected to SDS-PAGE in 4-12% NuPAGE Bis-Tris gradient gels (Novex) using the Na-MES running buffer. Gels were stained with Coomassie Blue R-250 (A), and then subjected to fluorography (Chamberlin, M. (1978) Anal. Biochem. 98:132) for 12 h at −70° C. on sensitized Kodak XAR-5 film (B). Molecular weight markers (MW) are shown at left. Concentrations of GST fusion proteins were determined in comparison with bovine serum albumin standards (Sigma) by SDS polyacrylamide gel electrophoresis and Coomassie Blue staining; it was assumed that bovine serum albumin stained twice as intensely as most other proteins. Concentrations of histones and hnRNP A1 were determined by the method of Lowry (Lowry, O. H. et al. (1951) J. Biol. Chem. 193:265). […]

Data set [2] concerns the target T1, K1 peptide SEQ ID NO: 5 […]-NH2 (Mus musculus, UniProt Q9WVG6, W314R).
T1 construct: A 3.2-kb partial CARM1 cDNA clone with an open reading frame of 606 amino acids (CARM1(3-608)); made in house; host or cells: E. coli strain BL21
T1 sequence (Q9WVG6 3-608 W314R): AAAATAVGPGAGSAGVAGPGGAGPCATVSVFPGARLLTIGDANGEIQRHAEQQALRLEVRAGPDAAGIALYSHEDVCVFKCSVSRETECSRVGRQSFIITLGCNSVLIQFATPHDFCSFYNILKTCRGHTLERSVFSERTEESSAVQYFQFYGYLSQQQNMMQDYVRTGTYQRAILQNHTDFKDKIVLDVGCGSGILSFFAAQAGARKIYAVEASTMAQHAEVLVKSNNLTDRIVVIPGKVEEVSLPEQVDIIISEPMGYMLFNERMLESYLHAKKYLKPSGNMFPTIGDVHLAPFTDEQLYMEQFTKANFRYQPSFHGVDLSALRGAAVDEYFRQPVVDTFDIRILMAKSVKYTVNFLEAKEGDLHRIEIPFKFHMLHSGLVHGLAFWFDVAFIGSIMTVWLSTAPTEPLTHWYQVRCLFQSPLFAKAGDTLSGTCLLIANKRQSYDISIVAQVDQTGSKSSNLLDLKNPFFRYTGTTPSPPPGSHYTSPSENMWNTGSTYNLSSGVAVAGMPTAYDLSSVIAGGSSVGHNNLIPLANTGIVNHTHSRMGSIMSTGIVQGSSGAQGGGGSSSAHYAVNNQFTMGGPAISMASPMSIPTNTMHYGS
Description: Methyltransferase reaction with K1 peptide substrate, reversed-phase HPLC separation. The note with it: substrate K1 peptide (120 μM); enzyme 0.03-0.05 mg/ml. The data set is classed as biochemical.

The subject of data set [3] is mixed histones (calf thymus). Description: Methyltransferase reaction with mixed histones, reversed-phase HPLC separation. The data set is classed as biochemical. The note with it: substrate mixed histones (2.7 mg/ml), enzyme 0.03-0.05 mg/ml.
Data set [4] has as its system R1 peptide SEQ ID NO: 4 […]-NH2. Kind of data set: Methyltransferase reaction with R1 peptide substrate, reversed-phase HPLC separation. The data set is classed as biochemical. Particulars: substrate R1 peptide (120 μM); enzyme 0.03-0.05 mg/ml.

Marks after values point to notes of the source that are not given here.

Regarding “GRIP1: p160 nuclear receptor coactivator”, the “enhancement of reporter gene expression by the hormone-activated NR” value in data set [1] lay in the range of 2 to 27 fold. For “PRMT1: related mammalian protein arginine methyltransferase [reference compound]”, the “methylation of hnRNPA1” value in the data set with hnRNPA1 is listed as “good substrate”.

B1: GST-CARM1: glutathione S-transferase fusion protein of CARM1 produced in E. coli (protein)
chain: AAAATAVGPGAGSAGVAGPGGAGPCATVSVFPGARLLTIGDANGEIQRHAEQQALRLEVRAGPDAAGIALYSHEDVCVFKCSVSRETECSRVGRQSFIITLGCNSVLIQFATPHDFCSFYNILKTCRGHTLERSVFSERTEESSAVQYFQFYGYLSQQQNMMQDYVRTGTYQRAILQNHTDFKDKIVLDVGCGSGILSFFAAQAGARKIYAVEASTMAQHAEVLVKSNNLTDRIVVIPGKVEEVSLPEQVDIIISEPMGYMLFNERMLESYLHAKKYLKPSGNMFPTIGDVHLAPFTDEQLYMEQFTKANFRYQPSFHGVDLSALRGAAVDEYFRQPVVDTFDIRILMAKSVKYTVNFLEAKEGDLHRIEIPFKFHMLHSGLVHGLAFWFDVAFIGSIMTVWLSTAPTEPLTHWYQVRCLFQSPLFAKAGDTLSGTCLLIANKRQSYDISIVAQVDQTGSKSSNLLDLKNPFFRYTGTTPSPPPGSHYTSPSENMWNTGSTYNLSSGVAVAGMPTAYDLSSVIAGGSSVGHNNLIPLANTGIVNHTHSRMGSIMSTGIVQGSSGAQGGGGSSSAHYAVNNQFTMGGPAISMASPMSIPTNTMHYGS
modifications: left off: a dimerising Fc or GST
notes: glutathione S-transferase fusion protein of CARM1 produced in E. coli
Turning to B1, the results for the Methyltransferase specific activity in data set [2], in data set [3] and in data set [4] were 0.7 pmol/min/mg, 971 pmol/min/mg and 21.6-54.5^a pmol/min/mg, respectively.
